Experimental data reported in US20230143604A1, “QW DOSING OF GIP RECEPTOR AGONIST PEPTIDE COMPOUNDS AND USES THEREOF” (TAKEDA PHARMACEUTICAL COMPANY LIMITED, priority 2020, published 2023).
Starred links: 1 amine or outer side, 2 acyl side, 3 side chain; linkers in the order of their positions; H or OH if unused. Non-standard residues stand in square brackets, D forms with d. Groups on a side chain read outwards from the residue. No end group written: not given here. *: point of attachment. 2OEGgEgE‑C18 diacid = O=C(O)CCCCCCCCCCCCCCCCC(=O)N[C@@H](CCC(=O)N[C@@H](CCC(=O)NCCOCCOCC(=O)NCCOCCOCC(=O)*)C(=O)O)C(=O)O; C18 diacid = O=C(O)CCCCCCCCCCCCCCCCC(=O)*; C17 diacid = O=C(O)CCCCCCCCCCCCCCCC(=O)*; γGlu = O=C(O)[C@H](CCC(=O)[*:2])N[*:1]; NMeY = CN[C@@H](Cc1ccc(O)cc1)C(=O)O; AEEA = NCCOCCOCC(=O)O; Aib = CC(C)(N)C(=O)O

T1: full-length human GIPR with an N-terminal FLAG tag (human, UniProt P48546 22-466)
T1 sequence (looked up): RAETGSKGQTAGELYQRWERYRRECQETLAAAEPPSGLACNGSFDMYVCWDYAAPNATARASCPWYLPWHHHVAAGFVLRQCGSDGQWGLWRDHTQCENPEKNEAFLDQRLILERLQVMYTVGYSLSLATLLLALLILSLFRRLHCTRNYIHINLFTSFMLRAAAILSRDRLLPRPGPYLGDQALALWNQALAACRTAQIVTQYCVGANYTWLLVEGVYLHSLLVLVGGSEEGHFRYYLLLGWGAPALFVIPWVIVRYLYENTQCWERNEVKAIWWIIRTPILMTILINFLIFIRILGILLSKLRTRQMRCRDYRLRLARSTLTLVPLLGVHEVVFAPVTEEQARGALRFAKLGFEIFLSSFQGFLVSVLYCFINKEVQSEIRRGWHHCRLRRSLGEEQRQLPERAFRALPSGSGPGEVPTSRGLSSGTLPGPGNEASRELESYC

B1: Compound No. 46 (peptide)
peptide: [NMeY][Aib]EGTFISDYSIALDR[Aib]K(2OEGgEgE‑C18 diacid)Q[Aib]NFVNWLLAQSG-OH
modifications: N-terminus assumed
SMILES: CC[C@H](C)[C@H](NC(=O)[C@H](CO)NC(=O)[C@H](Cc1ccc(O)cc1)NC(=O)[C@H](CC(=O)O)NC(=O)[C@H](CO)NC(=O)[C@@H](NC(=O)[C@H](Cc1ccccc1)NC(=O)[C@@H](NC(=O)CNC(=O)[C@H](CCC(=O)O)NC(=O)C(C)(C)NC(=O)[C@H](Cc1ccc(O)cc1)NC)[C@@H](C)O)[C@@H](C)CC)C(=O)N[C@@H](C)C(=O)N[C@@H](CC(C)C)C(=O)N[C@@H](CC(=O)O)C(=O)N[C@@H](CCCNC(=N)N)C(=O)NC(C)(C)C(=O)N[C@@H](CCCCNC(=O)COCCOCCNC(=O)COCCOCCNC(=O)CC[C@H](NC(=O)CC[C@H](NC(=O)CCCCCCCCCCCCCCCCC(=O)O)C(=O)O)C(=O)O)C(=O)N[C@@H](CCC(N)=O)C(=O)NC(C)(C)C(=O)N[C@@H](CC(N)=O)C(=O)N[C@@H](Cc1ccccc1)C(=O)N[C@H](C(=O)N[C@@H](CC(N)=O)C(=O)N[C@@H](Cc1c[nH]c2ccccc12)C(=O)N[C@@H](CC(C)C)C(=O)N[C@@H](CC(C)C)C(=O)N[C@@H](C)C(=O)N[C@@H](CCC(N)=O)C(=O)N[C@@H](CO)C(=O)NCC(=O)O)C(C)C

These binders were tested against full-length human GLP-1R with an N-terminal FLAG tag (human, UniProt P43220 24-463) (assay: cell-based or functional assay).

Point of comparison: [NMeY][Aib]EGTFISDYSIAK([G5-γGlu-γGlu-C18 diacid])DR[Aib]AQ[Aib]NFVNWLLAQRPSSGAPPPS-NH2 [Compound No. 34], “Human GLP1R cAMP EC50, HEK293T” value 1000 nM. Against it:
- [NMeY][Aib]EGTFISDYSIAK([G5-γGlu-C18 diacid])DR[Aib]AQ[Aib]DFVNWLLAQRPSSGAPPPS-NH2 [Compound No. 24] — 5.2-fold lower, 191 nM
- [NMeY][Aib]EGTFISDYSI[Aib]K([AEEA-AEEA-γGlu-γGlu-C17 diacid])DR[Aib]AQ[Aib]NFVNWLLAQRGGGGS-NH2 [Compound No. 32] — the same, 1000 nM
- [NMeY][Aib]EGTFISDYSIALDRK([AEEA-AEEA-γGlu-C18 diacid])AQ[Aib]DFVNWLLAQRPSSGAPPPS-NH2 [Compound No. 23] — 20-fold lower, 50.1 nM
- [NMeY][Aib]EGTFISDYSIAK([G5-γGlu-C17 diacid])DR[Aib]AQ[Aib]DFVNWLLAQRPSSGAPPPS-NH2 [Compound No. 22] — 1.9-fold lower, 525 nM
- [NMeY][Aib]EGTFISDYSIALDR[Aib]HQ[Aib]NFVNWLLAQK([AEEA-AEEA-γGlu-C18 diacid])PSSGAPPPS-NH2 [Compound No. 1] — 95-fold lower, 10.5 nM
- [NMeY][Aib]EGTFISDYSIALDR[Aib]AQ[Aib]K([AEEA-AEEA-γGlu-γGlu-C18 diacid])FVNWLLAQRPSSGAPPPS-NH2 [Compound No. 35] — 11-fold lower, 89.1 nM
- B1 — 9.5-fold lower, 105 nM
- YXEGTFISDYSIAXDRXAQXDFVNWLLAQSPSSGAPPPS (N-methyl Tyr 1; Aib at 2,17,20; Lys(G5-C18 diacid) at 14; C-terminal NH2) [Compound No. 38] — 22-fold lower, 45.7 nM
- YXEGTFISDYSIAXDRXAQXNFVNWLLAQSPSSGAPPPS (N-methyl Tyr 1; Aib at 2,17,20; Lys(G5-C18 diacid) at 14; C-terminal OH) [Compound No. 45] — 120-fold lower, 8.22 nM
- YXEGTFISDYSIXXDRXAQXDFVNWLLAQSPSSGAPPPS (N-methyl Tyr 1; Aib at 2,13,17,20; Lys(G5-C18 diacid) at 14; C-terminal NH2) [Compound No. 48] — 11-fold lower, 87.1 nM
- YXEGTFISDYSIXXDRXAQXDFVNWLLAQSPSSGAPPPS (N-methyl Tyr 1; Aib at 2,13,17,20; Lys(G5-C18 diacid) at 14; C-terminal OH) [Compound No. 47] — 6.8-fold lower, 148 nM
- YXEGTFISDYSIAXDRXAQXNFVNWLLAQRPSSGAPPPS (N-methyl Tyr 1; Aib at 2,17,20; Lys(G5-C18 diacid) at 14; C-terminal OH) [Compound No. 44] — 93-fold lower, 10.7 nM

The binders below were run against T1, full-length human GIPR with an … (assay: cell-based or functional assay).

Point of comparison: [NMeY][Aib]EGTFISDYSIALDR[Aib]AQ[Aib]K([AEEA-AEEA-γGlu-γGlu-C18 diacid])FVNWLLAQRPSSGAPPPS-NH2 [Compound No. 35], “Human GIPR cAMP EC50, HEK293T” value 0.0007 nM. Against it:
- [NMeY][Aib]EGTFISDYSIAK([G5-γGlu-C18 diacid])DR[Aib]AQ[Aib]DFVNWLLAQRPSSGAPPPS-NH2 [Compound No. 24] — 1.8-fold lower, 0.0004 nM
- [NMeY][Aib]EGTFISDYSI[Aib]K([AEEA-AEEA-γGlu-γGlu-C17 diacid])DR[Aib]AQ[Aib]NFVNWLLAQRGGGGS-NH2 [Compound No. 32] — 2.3-fold lower, 0.0003 nM
- [NMeY][Aib]EGTFISDYSIALDRK([AEEA-AEEA-γGlu-C18 diacid])AQ[Aib]DFVNWLLAQRPSSGAPPPS-NH2 [Compound No. 23] — 2.3-fold lower, 0.0003 nM
- [NMeY][Aib]EGTFISDYSIAK([G5-γGlu-C17 diacid])DR[Aib]AQ[Aib]DFVNWLLAQRPSSGAPPPS-NH2 [Compound No. 22] — within 1.5-fold, 0.0005 nM
- [NMeY][Aib]EGTFISDYSIAK([G5-γGlu-γGlu-C18 diacid])DR[Aib]AQ[Aib]NFVNWLLAQRPSSGAPPPS-NH2 [Compound No. 34] — 1.8-fold lower, 0.0004 nM
- [NMeY][Aib]EGTFISDYSIALDR[Aib]HQ[Aib]NFVNWLLAQK([AEEA-AEEA-γGlu-C18 diacid])PSSGAPPPS-NH2 [Compound No. 1] — 1.8-fold lower, 0.0004 nM
- B1 — 2.3-fold lower, 0.0003 nM
- YXEGTFISDYSIAXDRXAQXDFVNWLLAQSPSSGAPPPS (N-methyl Tyr 1; Aib at 2,17,20; Lys(G5-C18 diacid) at 14; C-terminal NH2) [Compound No. 38] — within 1.5-fold, 0.0006 nM
- YXEGTFISDYSIAXDRXAQXNFVNWLLAQSPSSGAPPPS (N-methyl Tyr 1; Aib at 2,17,20; Lys(G5-C18 diacid) at 14; C-terminal OH) [Compound No. 45] — within 1.5-fold, 0.0006 nM
- YXEGTFISDYSIXXDRXAQXDFVNWLLAQSPSSGAPPPS (N-methyl Tyr 1; Aib at 2,13,17,20; Lys(G5-C18 diacid) at 14; C-terminal NH2) [Compound No. 48] — the same, 0.0007 nM
- YXEGTFISDYSIXXDRXAQXDFVNWLLAQSPSSGAPPPS (N-methyl Tyr 1; Aib at 2,13,17,20; Lys(G5-C18 diacid) at 14; C-terminal OH) [Compound No. 47] — within 1.5-fold, 0.0008 nM
- YXEGTFISDYSIAXDRXAQXNFVNWLLAQRPSSGAPPPS (N-methyl Tyr 1; Aib at 2,17,20; Lys(G5-C18 diacid) at 14; C-terminal OH) [Compound No. 44] — 2.4-fold higher, 0.0017 nM
